Among the data in publication PMC12728182 (2025) are Kd values, retold here.

The term Kd denotes the concentration at which binding is half-saturated. A lower Kd goes with tighter binding.

In test [1] the target is T1, Human Rac1 (residues 1-177), GMPPNP-loaded (human, UniProt P63000 1-177). Nature of the test: ITC; 15 °C. In general terms: Isothermal titration calorimetry measures the heat released or taken up as one component is titrated into another.
Test [2] deals with T1, Human Rac1 (residues 1-177), …. Nature of the test: ITC; 10 °C, GMPPNP-loaded Rac1 (average).
The target is the same in test [3]. Nature of the test: ITC; 15 °C, GMPPNP-loaded Rac1 (average).
Test [4] shares this target. Kind of test: ITC; 35 °C, GMPPNP-loaded Rac1 (average).

B1: POSH_(315-380), shorter construct of human POSH comprising MRE1 and MRE2 (domain or fragment)
chain: GHMWSQASQNRHSMEISPPVLISSSNPTAAARISELSGLSCSAPSQVHISTTGLIVTPPPSSPVTTGPSF
B1: the Kd came out at 21.6 µM in test [1], 26.8 µM in test [2], 20.2 µM in test [3] and 21.7 µM in test [4].
